This note sets out measurements from paper PMC9709071.

Numbering of substitutions follows the chain as printed. In names and notes the source's numbering stands.

Data set [1] addresses T1, Recombinant DR3-Fc, Q93038.
T1 chain: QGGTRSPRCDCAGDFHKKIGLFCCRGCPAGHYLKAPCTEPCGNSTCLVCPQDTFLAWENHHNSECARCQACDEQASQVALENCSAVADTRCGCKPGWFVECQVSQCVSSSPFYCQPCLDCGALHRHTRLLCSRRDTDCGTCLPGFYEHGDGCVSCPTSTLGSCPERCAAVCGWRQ
Briefly: ELISA. The note with it: chain shown with the change; value read at the highest DR3-Fc concentration point, about 1000 nM; parent: est. 130; read off a plot. For orientation: ELISA stands for enzyme-linked immunosorbent assay.

The conditions of data set [2]: glycan lost; control: wild type.
A short description of data set [3]: recombinant expression, Expi293. The settings on record: glycan lost; control: wild type.
Data set [4] has as its target Fc-His-TL1A (TL1W61) (human). The data set can be described thus: ELISA; reversed format: TL1A molecules immobilised, DR3 titrated.

B1: His-TL1A (TL1W2), O95150 C162S (protein)
chain: MAEDLGLSFGETASVEMLPEHGSCRPKARSSSARWALTCCLVLLPFLAGLTTYLLVSQLRAQGEACVQFQALKGQEFAPSHQQVYAPLRADGDKPRAHLTVVRQTPTQHFKNQFPALHWEHELGLAFTKNRMNYTNKFLLIPESGDYFIYSQVTFRGMTSESSEIRQAGRPNKPDSITVVITKVTDSYPEPTQLLMGTKSVCEVGSNWFQPIYLGAMFSLQEGDKLMVNVSDISLVDYTKEDKTFFGAFLL
Regarding B1, in data set [1], the response (x 10^6 chemiluminescence) is 10.

B2: His-TL1A (TL1W2), O95150 C202S (protein)
chain: B1 chain with S162C, C202S
As for B2, the response (x 10^6 chemiluminescence) in data set [1] amounted to 9.

B3: TL1A (TNFSF15): N133Q (protein)
parent chain: B1 chain with S162C
As to B3, in data set [2], the “other: solubility” value was “no change”. Also, the expression_or_secretion entry in data set [3] was “no change”.

B4: His-TL1A (TL1W2), O95150 C162L; C202L (protein)
chain: VYAPLRADGDKPRAHLTVVRQTPTQHFKNQFPALHWEHELGLAFTKNRMNYTNKFLLIPESGDYFIYSQVTFRGMTSELSEIRQAGRPNKPDSITVVITKVTDSYPEPTQLLMGTKSVLEVGSNWFQPIYLGAMFSLQEGDKLMVNVSDISLVDYTKEDKTFFGAFLL
Regarding B4, the response (x 10^6 chemiluminescence) in data set [1] turned out to be 21.

B5: Recombinant DR3-Fc (Fc fusion)
chain: T1 chain
With B5, the EC50 (as a rule, the concentration that produces a half-maximal response) in data set [4] was 2.2 nM.
